Substrate in the data set: COC(=O)/C=C/c1ccc(O)c(OC)c1
Put plainly: HPLC-UV of released ferulic acid, nonlinear Hill fit. It is filed as biochemical, Bacillus pumilus. The following applies: 0.1-8 mmol/L substrate, 50 mmol/L Tris-HCl pH 9.0, 50 °C.

B1: BpFAE (Bacillus pumilus) (protein)
chain: MNLQEQIKIAASLRQPAEGSLPSQSELKPVHPPEVNKMEYDIPTSAGETKVWIFKPVNTSKQPLPVFVNLHGGGFILGSAEMDNHWCPVIADRAQCIVVNVEYQLAPEHPFPAALHECYDVLKWLYEHPDELQIDPNRVAIGGHSAGGNLATAACLLNIQKGNPVPIVYQVLDYPPLDLATDPAEKPAFEEAIPVEMARLFNAFYLQGQDPHNPLVSPIFADRSSLAQLPPALVITAERDSLAQEAEQYAEKLKEAGVDVTYRQFKGVPHAFTHAGDLEIAEEAWHLMSDQLKKAFE
notes: C-terminal 6xHis tag (removal not mentioned); expressed in B. subtilis WB800 from pMA5 (NdeI/BamHI); forward primer reads […]; (ATG of the NdeI site followed by a second ATG)
For orientation: Km means the substrate concentration at which the rate is half of its maximum. What is called kcat is the number of substrate molecules converted per active site and unit of time at saturation. Regarding B1, the Km was found to be 950 µM and the kcat came to 514.91 s⁻¹.

Values taken from publication PMC8228269, “Characterization of Feruloyl Esterase from Bacillus pumilus SK52.001 and Its Application in Ferulic Acid Production from De-Starched Wheat Bran” (Foods, 2021).
